Tested on: 5-FAM/QXL 520 NS3 FRET substrate

Recombinant HCV NS3/4A protease
NS3 FRET activity (5-FAM dequenching): FRET signal increased with increasing amounts of purified NS3, revealing a linear correlation (R^2=0.999) between NS3 protein levels and FRET activity

Reference: patent US20100099079
